Test results as given in patent US20160039943A1 (TRANSLATIONAL SCIENCES, published 2016).

B1: native human α2-antiplasmin (other, UniProt P08697 40-491, looked up)
chain: NQEQVSPLTLLKLGNQEPGGQTALKSPPGVCSRDPTPEQTHRLARAMMAFTADLFSLVAQTSTCPNLILSPLSVALALSHLALGAQNHTLQRLQQVLHAGSGPCLPHLLSRLCQDLGPGAFRLAARMYLQKGFPIKEDFLEQSEQLFGAKPVSLTGKQEDDLANINQWVKEATEGKIQEFLSGLPEDTVLLLLNAIHFQGFWRNKFDPSLTQRDSFHLDEQFTVPVEMMQARTYPLRWFLLEQPEIQVAHFPFKNNMSFVVLVPTHFEWNVSQVLANLSWDTLHPPLVWERPTKVRLPKLYLKHQMDLVATLSQLGLQELFQAPDLRGISEQSLVVSGVQHQSTLELSEVGVEAAAATSIAMSRMSLSSFSVNRPFLFFIFEDTTGLPLFVGSVRNPNPSAPRELKEQQDSPGNKDFLQSLKGFPRGDKLFGPDLKLVPPMEEDYPQFGSPK
modifications: radioiodinated (125I) in the binding assays
notes: mature; Bought native protein; also called native human α2-AP; native α2-AP

Key:
[1] = molecular target: T1, human Lys-plasmin (human, UniProt P00747 97-810); test: cell-based or functional assay
[2] = molecular target: T1, human Lys-plasmin; test: k1, rate constant of reversible complex formation, from continuous inhibition kinetics with S-2251
Description: (§1) Native α₂-AP (1.8 μM) was pre-incubated with or without of MAbs (49, 77, Dig-control; 1.8 μM or RWR 1.8 μM and 18 μM) for 60 min at 4° C. The fast inhibition of plasmin, micro-plasmin and trypsin was examined by a continuous method as described (Wiman, B. and Collen, D. On the kinetics of the reaction between human antiplasmin and plasmin. Eur J Biochem 1978; 84: 573-578). The serine protease (20 nM) was added to a cuvette containing S-2251 (500 μM) in 300 μl of TBS buffer, and the change in absorbance at 405 nm was recorded at 0.1-min intervals prior to and after the addition of 10 μl of α₂-AP (1.8 μM) or preformed α₂-AP/MAb complex. The final concentration of α₂-AP in the cuvette was 60 nM. The percentage of residual protease activity was calculated from the initial value (defined as 100%). The inhibition constant (i.e., k₁, the rate constant of reversible complex formation) was determined as described (Turner et al., 2002, J Biol. Chem. 277:33068-33074).

[3] = molecular target: B1; test: as above
Description: as §1

stoichiometry of inhibition (SI) [1] | kon [2] | kon [3] | Binder
1.1 | > 2.6e+06 M⁻¹ s⁻¹ | – | B1
– | – | 33000 M⁻¹ s⁻¹ | micro-plasmin (enzyme, human, UniProt P00747 562-810, looked up, domain: micro-plasmin; Made as in Reed et al., 1999; also called human micro-plasmin) APSFDCGKPQVEPKKCPGRVVGGCVAHPHSWPWQVSLRTRFGMHFCGGTLISPEWVLTAAHCLEKSPRPSSYKVILGAHQEVNLEPHVQEIEVSRLFLEPTRKDIALLKLSSPAVITDKVIPACLPSPNYVVADRTECFITGWGETQGTFGAGLLKEAQLPVIENKVCNRYEFLNGRVQSTELCAGHLAGGTDSCQGDSGGPLVCFEKDKYILQGVTSWGLGCARPNKPGVYVRVSRFVTWIEGVMRNN
– | – | 476000 M⁻¹ s⁻¹ | pork trypsin (enzyme, UniProt P00761 9-231, looked up) IVGGYTCAANSIPYQVSLNSGSHFCGGSLINSQWVVSAAHCYKSRIQVRLGEHNIDVLEGNEQFINAAKIITHPNFNGNTLDNDIMLIKLSSPATLNSRVATVSLPRSCAAAGTECLISGWGNTKSSGSSYPSLLQCLKAPVLSDSSCKSSYPGQITGNMICVGFLEGGKDSCQGDSGGPVVCNGQLQGIVSWGYGCAQKNKPGVYTKVCNYVNWIQQTIAAN
